According to paper PMC11408855, “The structure of the SufS–SufE complex reveals interactions driving protected persulfide transfer in iron-sulfur cluster biogenesis” (The Journal of Biological Chemistry, 2024):

Target: T1, EcSufS, C-terminal his-tagged (wild type) (Escherichia coli, UniProt P77444 1-406, PLP (pyridoxal 5'-phosphate) cofactor)
T1 construct: EcSufS, cysteine desulfurase SufS of Escherichia coli, UniProt P77444; the gene was cloned; also called WT EcSufS; cysteine desulfurase SufS; source: E. coli BL21(DE3)Δsuf, pET44, autoinduction, purified (Ni2+ HisTrap HP); not shown: His tag, C-terminal, kept
T1 sequence: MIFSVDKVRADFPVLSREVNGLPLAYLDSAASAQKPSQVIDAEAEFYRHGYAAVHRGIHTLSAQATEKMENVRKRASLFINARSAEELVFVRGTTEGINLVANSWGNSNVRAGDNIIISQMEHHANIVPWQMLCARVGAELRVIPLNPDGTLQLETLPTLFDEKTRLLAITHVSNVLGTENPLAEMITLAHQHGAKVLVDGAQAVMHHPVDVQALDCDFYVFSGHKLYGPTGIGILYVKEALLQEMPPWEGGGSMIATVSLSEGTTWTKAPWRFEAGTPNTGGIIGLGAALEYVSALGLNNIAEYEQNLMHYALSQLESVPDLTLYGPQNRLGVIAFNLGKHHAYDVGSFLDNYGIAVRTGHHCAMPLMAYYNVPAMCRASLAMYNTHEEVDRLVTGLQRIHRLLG
Assay: fluorescence polarisation; 100 nM BODIPY-FL-labeled EcSufE titrated with EcSufS; 50 mM Mops pH 8.0, 150 mM NaCl, 0.1 mg/ml bovine serum albumin, 25 °C, 30 min; absence of cysteine; apparent KD
Conditions: both partners purified

B1: BODIPY-FL-labeled C51A/E107C EcSufE (natural protein, Escherichia coli)
chain: MALLPDKEKLLRNFLRCANWEEKYLYIIELGQRLPELRDEDRSPQNSIQGAQSQVWIVMRQNAQGIIELQGDSDAAIVKGLIAVVFILYDQMTPQDIVNFDVRPWFCKMALTQHLTPSRSQGLEAMIRAIRAKAAALS
modifications: BODIPY-FL maleimide label (labeling efficiency 60 to 80%)
notes: EcSufE, transpersulfurase SufE of Escherichia coli, UniProt P76194, with C51A and E107C; also called "WT" EcSufE (double mutant background); C51A/E107C EcSufE control
For B1, the Kd was 5.2 µM.
